The source of these data is patent US20250326814A1 (OPKO BIOLOGICS, published 2025).

Common to all, as to assay: cell-based or functional assay
Experiment [1] addresses glucagon-like peptide-1 receptor (GLP-1R).
The target is the same in experiment [2]. This is another data set of the same source.
For experiment [3], the target named is glucagon receptor (GCGR).
Experiment [4] concerns the target glucagon-like peptide-1 receptor (GLP-1R). The source holds these as a separate data set.
Experiment [5] deals with glucagon receptor (GCGR). This is another data set of the same source.
Experiment [6] has as its target glucagon-like peptide-1 receptor (GLP-1R). The source holds these as a separate data set.
Experiment [7] concerns the target glucagon receptor (GCGR). The source holds these as a separate data set.

Non-standard residues stand in square brackets, D forms with d. No end group written: not given here. *: point of attachment. X2 = Eicosanedioic‑γGlu‑(AEEA)2‑Lys(Ac)‑Gly, CC(=O)NCCCC[C@H](NC(=O)COCCOCCNC(=O)COCCOCCNC(=O)CC[C@H](NC(=O)CCCCCCCCCCCCCCCCCCC(=O)O)C(=O)O)C(=O)NCC(=O)*; Aib = CC(C)(N)C(=O)O

With H[Aib]QGTFTSDYSKYLDSKKAQEFVQWLLN[Aib]GRNRNNIAC-NH2 (not fully specified (residue 38)) [Variant 2 (Formula XV)], in experiment [1], the “EC50 (nM), GLP-1 activity” value is 0.1 nM.

B1: OPK-88003 FA mono conjugate (modified OXM of Formula XXII or Formula XXIII; in Table 9 a mixture of both) (peptide)
peptide: HXQGTFTSDYSKYLDSKKAQEFVQWLLNXGRNRNNIACC
modifications: Aib at positions 2 and 29; one Eicosanedioic-gGlu-Glu-AEEA-AEEA-AEEA-Lys(Ac-)-Gly-OH binder on Cys38 (Formula XXII, SEQ ID NO: 47) or on Cys39 (Formula XXIII, SEQ ID NO: 48); C-terminal amide (backbone C^38C^39-NH2)
For B1, in experiment [1], the “EC50 (nM), GLP-1 activity” value worked out at 0.21 nM. Further, in experiment [2], the “% EC50 compare to KPI (GLP1)” value is 60%; the “Activity fold reduction compared to OPK-88003 KPI (GLP1)” value turned out to be 1.65 fold; the “EC50 [nM] GLP1, CBA potency assay” value stood at 0.21 nM. Besides, in experiment [3], the “% EC50 compare to KPI (GCGR)” value is 38%; the “Activity fold reduction compared to OPK-88003 KPI (GCGR)” value came out at 2.65 fold; the “EC50 [nM] GCGR, CBA potency assay” value was 1.6 nM. In experiment [4], the “% EC50 compare to KPI (GLP1), with HSA added (FA-conjugate + HSA)” value came to 8.9%; the “% EC50 compare to KPI (GLP1), without HSA” value was 100%; the “Activity fold reduction compared to OPK-88003 KPI (GLP1), with HSA added (FA-conjugate + HSA)” value was 11.2 fold; the “EC50 [nM] GLP1, CBA potency assay, with HSA added (FA-conjugate + HSA)” value was determined as 2.27 nM. In addition, the “EC50 [nM] GLP1, CBA potency assay, without HSA” value in experiment [4] amounted to 0.2 nM. Also, in experiment [5], the “% EC50 compare to KPI (GCGR), with HSA added (FA-conjugate + HSA)” value came out at 2.6%; the “% EC50 compare to KPI (GCGR), without HSA” value stood at 45%; the “Activity fold reduction compared to OPK-88003 KPI (GCGR), with HSA added (FA-conjugate + HSA)” value was 38.6 fold; the “Activity fold reduction compared to OPK-88003 KPI (GCGR), without HSA” value turned out to be 2.2 fold. For the same molecule, in experiment [5], the “EC50 [nM] GCGR, CBA potency assay, with HSA added (FA-conjugate + HSA)” value worked out at 52.9 nM and the “EC50 [nM] GCGR, CBA potency assay, without HSA” value stood at 3.04 nM.

Take H[Aib]QGTFTSDYSKYLDSKKAQEFVQWLLN[Aib]GRNRNNIAC(Eicosanedioic‑γGlu‑Glu‑(AEEA)3‑Lys(Ac)‑Gly)-NH2 [Variant 3 (Formula XVI)]: the “EC50 (nM), GLP-1 activity” value in experiment [1] came to 0.15 nM.

In the case of H[Aib]QGTFTSDYSKYLDSKKAQEFVQWLLN[Aib]GRNRNNIAC(X2)-NH2 [OPK-88604 (modified OXM of Formula XIV)], the “EC50 (nM), GLP-1 activity” value in experiment [1] was 0.09 nM. In experiment [6], the “EC50 (nM) GLP-1R, GLP-1 activity in vitro” value came out at 0.0159 nM. The “EC50 (nM) GCGR, glucagon activity in vitro” value in experiment [7] came to 0.164 nM.

B2: MOD-604 KPI (mutated OXM analog of any one of SEQ ID NOs: 5 to 7) (peptide)
peptide: HXQGTFTSDYSKYLDSKKAQEFVQWLLNXGRNRNNIAC
HELM: PEPTIDE1{H.[Aib].Q.G.T.F.T.S.D.Y.S.K.Y.L.D.S.K.K.A.Q.E.F.V.Q.W.L.L.N.[Aib].G.R.N.R.N.N.I.A.C.[am]}$$$$V2.0; N-terminus assumed
SMILES: CC[C@H](C)[C@H](NC(=O)[C@H](CC(N)=O)NC(=O)[C@H](CC(N)=O)NC(=O)[C@H](CCCNC(=N)N)NC(=O)[C@H](CC(N)=O)NC(=O)[C@H](CCCNC(=N)N)NC(=O)CNC(=O)C(C)(C)NC(=O)[C@H](CC(N)=O)NC(=O)[C@H](CC(C)C)NC(=O)[C@H](CC(C)C)NC(=O)[C@H](Cc1c[nH]c2ccccc12)NC(=O)[C@H](CCC(N)=O)NC(=O)[C@@H](NC(=O)[C@H](Cc1ccccc1)NC(=O)[C@H](CCC(=O)O)NC(=O)[C@H](CCC(N)=O)NC(=O)[C@H](C)NC(=O)[C@H](CCCCN)NC(=O)[C@H](CCCCN)NC(=O)[C@H](CO)NC(=O)[C@H](CC(=O)O)NC(=O)[C@H](CC(C)C)NC(=O)[C@H](Cc1ccc(O)cc1)NC(=O)[C@H](CCCCN)NC(=O)[C@H](CO)NC(=O)[C@H](Cc1ccc(O)cc1)NC(=O)[C@H](CC(=O)O)NC(=O)[C@H](CO)NC(=O)[C@@H](NC(=O)[C@H](Cc1ccccc1)NC(=O)[C@@H](NC(=O)CNC(=O)[C@H](CCC(N)=O)NC(=O)C(C)(C)NC(=O)[C@@H](N)Cc1c[nH]cn1)[C@@H](C)O)[C@@H](C)O)C(C)C)C(=O)N[C@@H](C)C(=O)N[C@@H](CS)C(N)=O
Regarding B2, the “EC50 (nM), GLP-1 activity” value in experiment [1] came out at 0.13 nM. For the same molecule, in experiment [2], the “% EC50 compare to KPI (GLP1)” value was found to be 45%; the “Activity fold reduction compared to OPK-88003 KPI (GLP1)” value was determined as 2.2 fold; the “EC50 [nM] GLP1, CBA potency assay” value was found to be 0.282 nM. For the same molecule, in experiment [3], the “% EC50 compare to KPI (GCGR)” value was found to be 72%; the “Activity fold reduction compared to OPK-88003 KPI (GCGR)” value is 1.4 fold; the “EC50 [nM] GCGR, CBA potency assay” value is 0.83 nM.
